# Reference: the DeepSol protein solubility set
# Test: soluble on expression in E. coli; label from the status in PepcDB or PDB records
row,Sequence,soluble on expression in E. coli
1,GSHSLRYFDIAVSRPGLGEPRYISVGYVDDTEFARYDSDAENRRYQPRARWMEREGPEYWERNTPIYKGKEQTFRVNLRTLRGYYNQSEGGSHTIQEMYGCDVGSDGSLLRGYEQFAYDGRDYIALNEDLKTWTAADFAARISRNKLERDGFADLHRAYLEGECVESLRRYLELGKETLLRSDPPKAHVTLHPRPEGDVTLRCWALGFYPADITLTWQLNGEDLTQDMELVETRPAGDGTFQKWASVVVPLGKEQNYTCRVEHEGLPKPLSQRWEPLEHHHHHH,soluble
2,MGSDKIHHHHHHMLVEHDISDVRVGMYIIEITVPKNKFRLAKQGWLDNERIIDALKSKSVEKVLIDASKTRIVADQNATTPSPSVATPSVTTKKGTKTSSESVKPKAASVRTKYQFNQEVIKAKQVFAESKAIQAKLFHNAQRGLPLEMESVCKITSESTDLIFNNPNALACVLNIRNKDEYLLEHSVSVSILMTMFALYLKIDRDIVNQLAIGAFLHDVGKIMVPDNILNKPGKLTDDEFFVMKSHARHSVSIMRKTPGISAISMEVAGQHHEKLNGKGYPLGLKGDKISLYGRMSSICDIFDALTATRCYKQGYPQVKCFGILRKLAENNELDIDLVDKFIKCMGVYPVGAVVQLDSNRLAIVESHNIADPIRPNVRPFYRLDPKLFEKGLDVDLSSAADEQIVKCVRADDFELDMQQIIEFLAQEA,not soluble
3,MHKLLISLMMLLSFQAFSQVQEYTLNNGLKVLVKEDHRAPVVVSMIWYNVGSADEPVGITGVSHAIEHMMFKGTSKYPVGVFSKTIAALGGQENAFTNNDYTAYYEKLDAGHLATSFELEADRMNNLLLNSEEFAKEIKVIQEERRLRTDNNPQALAFERFLATAHLTAPYNHPVIGWMNDLKQMKVEDLKKWYESYYAPNNATLVVVGDVNPEKVHALAEHYFGSIAKRPIASRKPQQEPSALGKKMVYINAPAKLPLLLIGYTVPSVKTAKNNWEPYALEIIAGILDAGESARFAKHLVRGNQVATGAEAYYNLYSRYQSQFIVYGAPSQDHQIKDLEKALITELEALKKAPVSNQELQRVKNQIIAQKTFEKDSIFGQAMELGLLETIGLGWKNTETYTKAINEITPEQIQQVAQRYFQENNMTVAELKPIRQEEVRP,not soluble
4,MSLVLVKAMARIVMKFGGTSVANLERIHNVARHVKREVDAGHEVAVVVSAMSGKTNELVDWVQNAAKVAGTNAASFYDAREYDAVVASGEQVTSGLLAITLQSMGINARSWQGWQIPIRTDNAHGAARILEIDGSDIVHRMGEGQVAVVAGFQGIGPDNRIATLGRGGSDTSAVAIAAAVKADRCDIYTDVDGVYTTDPRIEPKARRMKKIAFEEMLEMASLGAKVLQVRSVELAMVHKVRTFVRSSFEDPDAPGMGDLINPPGTLICDEDEIVEQEVVTGIAYAKDEAQISLRRVADRPGVSAAIFGPLAEAHINVDMIVQNISEDGSRTDMTFTVPSGDVAKALRVLDENKGQIGFDVAQNETGLAKVSVIGIGMRSHAGVAASAFKALAEKNINIKAITTSEIKISILIDGAYAELAVRTLHSAYGLDKAEGHHHHHH,not soluble
5,MSLGLINPDFQTLPELFTSVFSHFKGQPDKAPIARKINGAYSPISYDSLAEDCRHFAAYLKERGIEPGDRVAILSENRPGWYLADIAILSLGATDVPLYPSLPPNQIEYILNNCSAKGIIVSNMLQLGKILSIWPKLPELNMVIVMNKLDEPVEDVIDLSQAKTEGKKVLEAKPWLLDGIKSNPDDVATLIYTSGTTGLPKGVMLTHRNICENVKSCSTVIRIDQTDSSLSFLPLSHAYERTGGYYLMFACGARINLAESVETISLNISEAKPTIIFTVPRLFDRMKASILKSVTSEGGVKEKIFFWAVSTGEKYHKQLATGKVSPLLAVQHNLADKLVYSKIRKKFGGKLRYFVSGGAALPQKTGEFFQSIGITILEGFGLTETSPVTNVNRPEKVKFGTVGLPVKNVEVKIAPDGEIMLKGPNIMKGYWKDEAASAEVLRDGWLYTGDIGEVDSEGYLKITDRKKHIIVTSGGKNIAPLQIENLILDSPYVDQAMIVGEKRPFLIALIVPDFLKLRDFAAEHQIKASSTKELINTKEVIEVYEKLLKSISRQLATHEKVRKFLLLEEPFSIENGMMTPTLKLKRKEITTKFSAEIDNLYNTLNMVYNTEGHHHHHH,soluble
6,MSRRNATSFVDNNTLTSSEGLTSGVFSWALERLPTCLREELQLPLTDTGSCWQTN,not soluble
7,MGHHHHHHSHFLSSSTYPEIHGFLHAKEQGKKSWKKIYFFLRRSGLYFSTKGTSKEPRHLQFFSEFGNSDIYVSLAGKKKHGAPTNYGFCFKPNKAGGPRDLKMLCAEEEQSRTCWVTAIRLLKYGMQLYQNYMHPYQGRSGCSSQSI,not soluble
8,MAFNDCFSLNYPGNPCPGDLIEVFRPGYQHWALYLGDGYVINIAPVDGIPASFTSAKSVFSSKALVKMQLLKDVVGNDTYRINNKYDETYPPLPVEEIIKRSEFVIGQEVAYNLLVNNCEHFVTLLRYGEGVSEQANRAISTVEFVTAAVGVFSFLGLFPKGQRAKYYLEHHHHHH,soluble
9,MAATFPLSAGTYSINGRKYRKTAYNLKADTSFDLNTDTTFADTPDIYEDEASADCFAPPGLPELRKRAAKAKIVAKAVETSSKEPEPTEDDRIKVIGGKKWISSINVAPCFIGKLIGTNRRTLNSLENETQCRVKTPRRNENIACEISSIVSLECVQRCLDRLEIFIDDSRKTARVNHFVALPCDQHEVQENFNIFKQMVMESDHFDSSCKNSQLFTKPTRLHLTLSVARIFDDMDLQKAVGAFEILEKEIRQIKDSKPLIADIQGIDMMNDDPSQVFVLYAKVKGDKVQEVANYVNRRLIELGVSSKNEHDNGSDAVKLHMTLMNSRYVTQSEKSGKSKEAALFDAKQVLEDLKDSYFGTFELKEVNFDVKKFKQRI,not soluble
10,MQQPVINQQPGYNPQGMNPVQQFEMHQQQHQQAITTQPGVFVQPAPGSVWMPMPPAIQGVPTGLEYLTYLDTIMVHQIKELIEIVTDWETKNKYVLKNANGEQCYYAFEESGCCERQCCGPQRGFVMHIVDNFKREVLTIKREFKCCGGGCCGCLACIGCCQQECIIETPSMGVLGIIRQRCGCMSSNYDIMDGDGNVIFQIDGPCCCMLCGCQDKEFPIKTANNGTVVGAITKKWGGCFREAFTDADTFAVNFPGDLDVKLKGVLIGATFLIDFMEFEQQSQNRNNGGAYYSSS,not soluble
11,MSLTIYGVYRSRATRTLWLAAELGIEFKHVPVIQARRLADPLATDAPLNTLSPAFLAVNPMGTIPCIEDDGMVLYESMAINLYLARKYGGPLAPVDLKEDAAMLQWSFFAATEIETNSLKISSAIAEGLAESDAGKAVIDVAARLLKRPLRVLEQHLATHDYLVGDRFTVADLNVAEIVRYAQGHQPLFDAHPALKAWLARCQARTAFKSMWDSRTAEGHHHHHH,soluble
12,MSLELNFSQTLGNHCLTINETLPANGITAIFGVSGAGKTSLINAISGLTRPQKGRIVLNGRVLNDAEKGICLTPEKRRVGYVFQDARLFPHYKVRGNLRYGMSKSMVDQFDKLVALLGIEPLLDRLPGSLSGGEKQRVAIGRALLTAPELLLLDEPLASLDIPRKRELLPYLQRLTREINIPMLYVSHSLDEILHLADRVMVLENGQVKAFGALEEVWGSSVMNPWLPKEQQSSILKVTVLEHHPHYAMTALALGDQHLWVNKLGEPLQAALRIRIQASDVSLVLQPPQQTSIRNVLRAKVVNSYDDNGQVEVELEVGGKTLWARISPWARDELAIKPGLWLYAQIKSVSITEGHHHHHH,soluble
13,MSLAANMYRVGDYVYFENSSSNPYLIRRIEELNKTANGNVEAKVVCFYRRRDISSTLIALADKHATLSVCYKAGPGADNGEEGEIEEEMENPEMVDLPEKLKHQLRHRELFLSRQLESLPATHIRGKCSVTLLNETESLKSYLEREDFFFYSLVYDPQQKTLLADKGEIRVGNRYQADITDLLKEGEEDGRDQSRLETQVWEAHNPLTDKQIDQFLVVARSVGTFARALDCSSSVRQPSLHMSAAAASRDITLFHAMDTLHKNIYDEGHHHHHH,not soluble
